Results taken from patent US20170334973A1.
Read-outs that look alike come from different tables or passages of the source.

What was measured:
EBOV GPdTM (Ebola virus) [1] = target: EBOV GPdTM (Ebola virus) (UniProt Q05320)
SUDV GPdTM (Sudan virus) [2] = target: SUDV GPdTM (Sudan virus) (UniProt Q66814)
EBOV GPdTM (Ebola virus) [3] = target: EBOV GPdTM (Ebola virus) (UniProt Q05320); remark: listed apart in the source
RESTV GP (Reston virus) [4] = target: RESTV GP (Reston virus) (UniProt Q66799)
SUDV GPdTM (Sudan virus) [5] = target: SUDV GPdTM (Sudan virus) (UniProt Q66814); remark: listed apart in the source
EBOV GPdTM (Ebola virus) [6] = target: EBOV GPdTM (Ebola virus) (UniProt Q05320); remark: listed apart in the source
RESTV GP (Reston virus) [7] = target: RESTV GP (Reston virus) (UniProt Q66799); remark: listed apart in the source
SUDV GPdTM (Sudan virus) [8] = target: SUDV GPdTM (Sudan virus) (UniProt Q66814); remark: listed apart in the source

Substance: FVM09 (antibody)
- EC50 (EBOV GPdTM (Ebola virus) [1]): 7.2 nM
- EC50 (SUDV GPdTM (Sudan virus) [2]): 9.73 nM
- EC50 (EBOV GPdTM (Ebola virus) [3]): 8 ng/mL
- EC50 (RESTV GP (Reston virus) [4]): 0.01 µg/mL
- EC50 (SUDV GPdTM (Sudan virus) [5]): 0.011 µg/mL
- EC50 (EBOV GPdTM (Ebola virus) [6]): < 0.015 µg/mL
- EC50 (RESTV GP (Reston virus) [7]): < 0.015 µg/mL
- EC50 (SUDV GPdTM (Sudan virus) [8]): < 0.015 µg/mL
